We go through 3 molecules from US20250303000A1, “COMPOSITIONS AND METHODS FOR INDUCIBLE ALTERNATIVE SPLICING REGULATION OF GENE EXPRESSION” (THE CHILDREN'S HOSPITAL OF PHILADELPHIA, priority 2022, published 2025).

One data set concerns loxP-STOP cassette. The data set is described as follows: In vivo gene editing in liver of Ai14 mice (FACS, histology, genomic DNA PCR, Sanger sequencing). Particulars: LMI070 50 mg kg-1, 7 days after LMI070. The text has this: FIGS. 1A-1H. Generation of the miniXon cassette and assessment of miniXon control of SaCas9 for in vivo gene editing in liver. a, Cartoon depicting the AAV genome size with the SF3B3-Xon and SF3B3-miniXon cassettes. b, Luciferase induction in HEK293 cells transfected with SF3B3-miniXon-luciferase or SF3B3-Xon-luciferase in response to varying doses of LMI070. All samples are normalized to Renilla luciferase activity and are relative to DMSO treated cells. Data are the mean±s.e.m. of 8 biological replicates (***P<0.001 versus SF3B3.Xon, two-way ANOVA followed by Bonferroni's post hoc test). c, Splicing inclusion assays of the LMI070-induced exon at 100 nM LMI070. Pseudo exon inclusion in the Xon cassette was detected using primers flanking the pseudoexon (left) or by priming within the novel exon sequence (right; 4 technical replicates). d, Experimental design. […]
The inventors have previously developed switch-on cassettes from LMI070-responsive exons, including from the minimal intronic intervening sequences necessary to recapitulate splicing of pseudoexons in SF3B3 (SF3B3.X^on; X^on). […] AAV8-miniX^on-SaCas9 plus single-guide RNAs targeting the loxP-STOP sequence in Ai14 mice were administered intravenously; after several weeks, LMI070 was administered and gene editing was assessed 7 days later (FIG. 1D). […]

For a further data set, the system named is luciferase. The data set can be described thus: Luciferase induction in HEK293 cells transfected with switch cassette-luciferase and treated with LMI070. In kind it is cell-based, human. Particulars: varying doses of LMI070, 24 h. The text has this: FIGS. 1A-1H. Generation of the miniXon cassette and assessment of miniXon control of SaCas9 for in vivo gene editing in liver. a, Cartoon depicting the AAV genome size with the SF3B3-Xon and SF3B3-miniXon cassettes. b, Luciferase induction in HEK293 cells transfected with SF3B3-miniXon-luciferase or SF3B3-Xon-luciferase in response to varying doses of LMI070. All samples are normalized to Renilla luciferase activity and are relative to DMSO treated cells. Data are the mean±s.e.m. of 8 biological replicates (***P<0.001 versus SF3B3.Xon, two-way ANOVA followed by Bonferroni's post hoc test). c, Splicing inclusion assays of the LMI070-induced exon at 100 nM LMI070. Pseudo exon inclusion in the Xon cassette was detected using primers flanking the pseudoexon (left) or by priming within the novel exon sequence (right; 4 technical replicates). d, Experimental design. Mice were injected with AAV8-miniXon-SaCas9 plus AAV8-sgAi14-eGFP (1×10^12 viral genomes, 1:1 ratio) and 2 weeks later dosed with vehicle or LMI070 at 50 mg kg-1 to induce SaCas9 expression and editing of the loxP-STOP cassette (guides: sgA14_1: 5′-[…]-3′, sgAi14_2: 5′-[…]-3′). One week later, mice were euthanized, and livers processed to assess gene editing by genomic DNA PCR, histology and FACS of isolated hepatocytes. e, Representative FACS analysis of hepatocytes obtained from Ai14 mice after LMI070 or vehicle treatment. The gating/sorting strategy (above), and the percentage of tdTomato expressing cells for each condition (below) is shown (4 biological replicates). f, Representative photomicrographs of liver sections obtained from AAV injected Ai14 mice 1-week after LMI070 treatment. tdTomato expression (red) is evident in LMI070 treated mice (5 mice per group; scale bars, 100 μm). g, SaCas9 mediated editing of the loxP-STOP cassette in Ai14 mice as detected by PCR assay of liver genomic DNA (3 of 5 mice with guides plus LMI, 2 of 4 mice with guides plus vehicle, 1 of 2 untreated mice are shown). […] The sequence shown is represented in SEQ ID NO: 29.
FIG. 2. Comparison of the miniX^on, SF3B3.miniXS3B (miniXS3B), and SF3B3.miniXS3B2 (miniXS3B2) systems for luciferase induction. To increase expression and induction of the miniXon cassette in response to LMI070, the kozak sequence within the LMI070 induced translation initiation exon was optimized, and splice sites located within the upstream and downstream intron eliminated. […]
To test these switches, the cassettes were cloned upstream of luciferase or cDNA. HEK293 cells were transfected with the candidate cassettes, treated with LMI070, and luciferase activity expression determined 24 h later.

For the next data set, the system named is SaCas9. The data set can be described thus: SaCas9 protein levels by western blot in HEK293 cells treated with DMSO or LMI070. In kind it is cell-based, human. Conditions: for SaCas9 protein level, DMSO treated cells / SaCas9 protein induction after LMI070 treatment: 24 h; for SaCas9 protein levels relative to SF3B3.miniXon cassette / SaCas9 protein induction after LMI070 treatment: LMI070 (100 nM). As for the experimental part: FIG. 3. Comparison of the miniX^on (miX^on), SF3B3.miniXS3B (m3B), and SF3B3.miniXS3B2 (m3B2) systems for HD editing control. (top) Cartoon depicting X^on splicing system for controlling Cas9 protein translation in response to LMI070. (middle, bottom) Bicistronic plasmids containing Xon.SaCas9 or miniXon.SaCas9 expression cassette together with a CMVeGFP expression cassettes were transfected in HEK293 cells and treated with DMSO (middle) or LMI070 (100 nM) (bottom) and Cas9 protein levels were determined by western blot 24 h later. eGFP proteins served as transfection control. Western blot is representative of 4 biological replicates.
While gene editing approaches provide an enormous opportunity for altering or removing disease alleles, prolonged expression of the editing machinery from viral vectors could be problematic. The editing enzymes are foreign proteins and may induce immune responses, and prolonged gene expression would increase opportunities for off-target editing (Charlesworth et al., 2019; Vakulskas et al., 2018). To test the efficacy of SF3B3.miXS3B and SF3B3.miXS3B2 to control translation of CRISPR effector proteins, SF3B3.miXS3B and SF3B3.miXS3B2-SaCas9-CRISPR expression cassettes were generated and SaCas9 protein levels were quantified in response to DMSO or LMI070 treatment in HEK293 cells (FIG. 3A).
For orientation: In western blotting, separated proteins are transferred to a membrane and probed.

On to `CC1(C)CC(Oc2ccc(-c3ccc(-c4cn[nH]c4)cc3O)nn2)CC(C)(C)N1` [LMI070, 5-(1H-Pyrazol-4-yl)-2-(6-((2,2,6,6-tetramethylpiperidin-4-yl)oxy)pyridazin-3-yl) phenol], for which, in the data set on loxP-STOP cassette (Ai14 mice liver), the “Editing of the loxP-STOP cassette (genomic DNA PCR, 355 bp product, Sanger sequencing)” value is listed as “observed”. Also, the “tdTomato expression in hepatocytes / liver sections” value in the data set with loxP-STOP cassette (Ai14 mice, AAV8-miniXon-SaCas9 plus AAV8-sgAi14-eGFP i.v.) is reported as “evident”.

B1: miniXS3B: miniX^on cassette with optimized Kozak/ATG and cryptic splicing sites eliminated; SEQ ID NO: 1 (nucleic acid)
DNA: TTTAAACAAGCTTGGCAATCCGGTACTGTTGGTAAATTTCTCTACAACTTAACCTTACAGAGAGCCACTGGCTTCAGCTTTGCCTTTCTTGGTAACTTTTCTGGTAAGTTCTCTCGTTACCATCTTTTGAAATTTTAAGTGAATTAATACATATCTTGCTTAATCTCTTGTGCAAAAAATGTTTTCCATTTATGACAAAACAAAAATTGTGTGAAATTTCAAATATTGGATTAGGAAATACAAAGTTACTGAAAGTGAGGTACTAATGTTTATAAAATAAAAACTTTTTCTTGCCATTTGCAGATTAACATTTTTGAGTCAATCCAAGTGCCACCATGGAAAAAGTTCATGATTGTGTAGAGTAAGACATAATTTTGTTGAAATTTAACTCTGAATACTTAATGTGGTACTGAATACTTAATGTGGTACTGAGAAGCAGCCTAACTGACCACACAACATTCCACGCCTGGCTAATTTTTGTATTTTTAATAAAAACGGGGTTTCACCATGGTGGCCGGGCTGGTTCTGGTTGTTTATGATCTTTATTTTTTGGTGATCTAGGAACCAAACAACAAAAAATTGTTGTTTCCCGTGGGTCGGATCC
modifications: SF3B3.miniXS3B (m3B; miniXS3B; XS3B)
With B1, in the data set on luciferase, the “Luciferase induction relative to X^on and miniX^on” value is “improved induction relative to X^on and miniX^on”; the “Protein levels (luciferase) relative to SF3B3.miniX^on cassette” value is recorded as “higher protein levels relative to the previous SF3B3.miniX^on cassette”. In addition, in the data set with SaCas9, the “SaCas9 protein level, DMSO treated cells” value was “almost undetectable”; the “SaCas9 protein levels relative to SF3B3.miniXon cassette” value was “higher”; the “SaCas9 protein induction after LMI070 treatment” value was “evident”.

B2: miniXS3B2: miniX^on cassette with optimized Kozak/ATG and cryptic splicing sites eliminated; SEQ ID NO: 2 (nucleic acid)
DNA: GTTTAAACAAGCTTGGCAATCCGGTACTGTTGGTAAATTTCTCTACAACTTAACCTTACAGAGAGCCACTGGCTTCAGCTTTGCCTTTCTTGGTAACTTTTCTGGTAAGTTCTCTCGTTACCATCTTTTGAAATTTTAAATGAATTAATACATATCTTGCTTAATCTCTTGTGCAAAAAATGTTTTCCATTTATGACAAAACAAAAATTGTGTGAAATTTCAAATATTGGATTAAAAAATACAAAGTTACGGAAAATGAGGTACTAATGTTTATAAAATAAAAACTTTTTCTTGCCATTTGCAGATTAACATTTTTGAGTCAATCCAAGTGCCACCATGGAAAAAGTTCATGATTGTGTAGAGTAAGACATAATTTTGTTGAAATTTAACTCTGAATACTTAATGTGGTACTGAATACTTAATGTGGTACTGAGAAGCAGCCTAACTGACCACACAACATTCCACGCCTGGCTAATTTTTGTATTTTTAATAAAAACGGGGTTTCACCATGGTGGCCGGGCTGGTTCTGGTTGTTTATGATCTTTATTTTTTGGTGATCTAGGAACCAAACAACAAAAAATTGTTGTTTCCCGTGGGTCGGATCC
modifications: SF3B3.miniXS3B2 (m3B2; miniXS3B2; XS3B2)
For B2, in the data set on luciferase, the “Luciferase induction relative to X^on and miniX^on” value was “improved induction relative to X^on and miniX^on”; the “Protein levels (luciferase) relative to SF3B3.miniX^on cassette” value is “higher protein levels relative to the previous SF3B3.miniX^on cassette”. For the same molecule, in the data set on SaCas9, the “SaCas9 protein level, DMSO treated cells” value is “almost undetectable”; the “SaCas9 protein levels relative to SF3B3.miniXon cassette” value was “higher”; the “SaCas9 protein induction after LMI070 treatment” value is recorded as “evident”.
